Data on 13 sequences can be found in the DeepSol protein solubility set.

The series is described as follows: soluble on expression in E. coli; label from the status in PepcDB or PDB records.
In the case of “MSKKIILITGASSGFGRLTAEALAGAGHRVYASMRDIVGRNASNVEAIAGFARDNDVDLRTLELDVQSQVSVDRAIDQIIGEDGRIDVLIHNAGHMVFGPAEAFTPEQFAELYDINVLSTQRVNRAALPHMRRQKHGLLIWISSSSSAGGTPPYLAPYFAAKAAMDAIAVQYARELSRWGIETSIIVPGAFTSGTNHFAHSGVPDDHARQAEYEAGPNAGLGEEIKKAFAAIVPPDADVSLVADAIVRVVGTASGKRPFRVHVDPAEDGADVGFSVLDRLRAEMLHRVGLSDLLKPRALA”, the “soluble on expression in E. coli” value is given as “soluble”. For “MSHTILLLQPTDNIESRSWSDYENTTECLEGICRVYEEYLKKKVPAQNEITYDISHLFEFIDDLKDLSMLVLDNTTYTYVPHNKQYVKESIYKLMNNRLNNQH” the value was “not soluble”; for “MAHHHHHHMSGENIKNLLAPQPTVDQGPYSGKYEKRMVDLPKPTYSTFYNKNKEFDSTHPRYFKQRDAVIGPIVNDTVDPKNFLRTGQGIKHIVPPVPHKKQHRKDFLDCGDIRKRTQGAMEPADQQQKESSGMGGMGSLANTNGVGGQAGDGIREHDMSSNDPERKGEQANGGDTGLRGTGNVESAVGSCDNKNNFQGAATGDNGRCHLNSLDRSRCKKDFVTSNIIDVDNMVPKRRKDQPEDPTRRKTFGRVPGYIGRVKEVIEKERMQLKAIGEARTNNRLERVGKFVYRLDEQERLNMISKLRAKLTEKGAELNRMPFAKDTYIQMKRKSDLEKRIKEIESSLEKLEKDAVFIYSDDPRVVHWTKDAAFEEARLFASD”, “not soluble”. For “GSHMRRYIGVMMLTLSPSILAELQLREPSFPDVQHGVLIHKVILGSPAHRAGLRPGDVILAIGEQMVQNAEDVYEAVRTQSQLAVQIRRGRETLTLYVTPEVTEGGGWTMFWV” the value was “soluble”; for “MPNDLPLLPPKNQHKHLDKTMISLPSDFRHLAHVGPMGSSEIENLRTSDNVIDTVNESSYYIRPSSSNSTLRSQRKEKDRVGLDDAFPSASKSEEEVEVVRGYENQPTSHQYINIAPPRPSKKNYKAPAPPTPPPQNSKPNLIFNAQDDEEETSEISEQPVVFRSISHTSNISTHIAPPPKIQTADRIVAPKPNSLVIERPGDLGGAFSFGLDDCIPIVKSTPPLNTLSPLHRPLAIPKNQEETPILSPASPPDDSNYMSTIRSTSVQGRKILDELDDWLDDLDDLDRDQLSTISTDESGYPTLALEKDRAFMKHLVEKYELGVAPETIRLRKKKGPAPKAPSLPPDLSSPTFQAPGFIPAFSARPVSMPPNRPPPSYEAPSFDAPEAPGTVLINGRALTKQNALDLRSSDESGVPPAIARFLYDKRIKSATMPMSIGRMTSSSGNTDVSTTSSRSNADTVSSILSTVGEDDDVEVLKRDREVEEEFVPPVPKPRSRKTVSTEPLKEEEEENVEEEIKGENVIGEEFQVVGDTKINDEQEDRVEATKDKINDAFIMLPPPSAAAMIPSDSESEDDDNFIITRF”, “not soluble”. For “GMTSTSITAVEYQSKRLESRLLKETREYVIALPEGYAQSLEAYPVVYLLDGEDQFDHMASLLQFLSQGTMPQIPKVIIVGIHNTNRMRDYTPTHTLVLPSGNKGNPQYQHTGGAGRFLDFIEKELAPSIESQLRTNGINVLVGHSFGGLVAMEALRTDRPLFSAYLALDTSLWFDSPHYLTLLEERVVKGDFKQKQLFMAIANNPLSPGFGVSSYHKDLNLAFADKLTKLAPKGLGFMAKYYPEETHQSVSHIGLYDGIRHLFKDFAIDIYSDSFSKQQVIDQYGVLSERFGHKVTPSQQYLEQLIQYSDRQQLTERKQMLEGLRQHFAKD” the value was “soluble”.

In the case of “KKQITVLDLHPGAGKTRRILPQIIKEAINRRLRTAVLAPTRVVAAEMAEALRGLPIRYQTSAVAREHNGNEIVDVMCHATLTHRLMSPHRVPNYNLFVMDEAHFTDPASIAARGYISTRVELGEAAAIFMTATPPGTSDPFPESNAPISDLQTEIPDRAWNSGYEWITEYIGKTVWFVPSVKMGNEIALCLQRAGKKVIQLNRKSYETEYPKCKNDDWDFVVTTDISEMGANFKASRVIDSRKSVKPTIITEGEGRVILGEPSAVTAASAAQRRGRTGRNPSQAGDEYCYGGHTNEDDSNCAHWTEARIMLDNINMPNGLIAQFYQPEREKVYTMDGEYRLRGEERKNFLELLRTADLPVWLAYKVAAAGVSYHDRRWCFDGPRTNTILEDNNEVEVITKLGERKILRPRWIDARVYSDHQALKSFKDFASGKR”, the “soluble on expression in E. coli” value is “soluble”.

As for “MTAPRDVRVRTLSLLLPEPGRKGRLAAISAAVCHRRDMATYRYLDKDRNVLEEQDFGTVQDAEEHRLSVLGAEIIEEVEDSGTPES”, the “soluble on expression in E. coli” value was “not soluble”. Take “MANLEKKRVVVTGLGAITPIGNTLQDYWQGLMEGRNGIGPITRFDASDQACRFGGEVKDFDATQFLDRKEAKRMDRFCHFAVCASQQAINDAKLVINELNADEIGVLIGTGIGGLKVLEDQQTILLDKGPSRCSPFMIPMMIANMASGLTAINLGAKGPNNCTVTACAAGSNAIGDAFRLVQNGYAKAMICGGTEAAITPLSYAGFASARALSFRNDDPLHASRPFDKDRDGFVMGEGSGILILEELESALARGAKIYGEMVGYAMTCDAYHITAPVPDGRGATRAIAWALKDSGLKPEMVSYINAHGTSTPANDVTETRAIKQALGNHAYNIAVSSTKSMTGHLLGGSGGIEAVATVMAIAEDKVPPTINLENPDPECDLDYVPGQSRALIVDVALSNSFGFGGHNVTLAFKKYQ”: the “soluble on expression in E. coli” value was “soluble”. The result for “MKLLLLAVCVIGFVACYEVVPRASALRPRGDVRRSPLPSLSAYAPFAKSLRPASTGIRRAPAVVTLPAQKANRSVKRAPAKPLPMTLPLLPPLLPLPQFIPVPVPVLSAEGLPTLPTLAPHTFPTFTPIPGMPTMPALTMPPSFQRLLGITTTTMKPAEKAMETVQTEESDNDTTSEARAHSAPTYSKDLNTIRSRLSKFVRGSEKKVTKAEDNADWIVPFH” reads “not soluble”; that for “MSGAAADGIDDRDIPKQEFLDAAFNGDIDKIDGLLRDKKVHIDSVDDDQVTALHIAAAMGNNKLVVRLLDYGANIHAVNHLGMTAYHYAAREGKLAVLDTLMQRGASKNQTTALGVTALTLACAGGHADVVRRLIRISNETPRSKQSLAPTPLIVATCSKSPQICSYLADFRVNLDESMKNLGNLTALSMAIVCTPGVYMVRTLIDLGASVNKKGLGDKTAEELAIMLNRKDLIHFFNEKKSYRSRMNADSDVRKEIKNDHIIERELGAPAQNGVSPLMYATTVRSINSAKHLVLHRDSDVNMRDNLHITSLQIASLLRVDDIIPLLLQRRADVTVVNKYGSTAYDLFLLSCDFLEPGQLRGQLHCHRPIDSKSNLNSSSSNIYKALRSQGILTKVGSQIGINSAKIELIEPKHWLAAKTKYQPAKLRNNYKFASVEDILKSCKVAKRPETNECDNETEAIREYMEECQSFAVFCFSDFYGERENNKATIPDYYDKAQDNAKRYAYLRMDGLDKKNSGRQENVSKLIPVRPRKDSIEREYRKPRNIALVDSPSQSQMRTTPRMLKKRDTDYFSAQAGRARASSTSLQVPTVTVTRQRHVTSPVIEDMIWNHFVRRGKNELMRVLQAAEIDKHSFFSLQQKDLEAMNSYTPENMKLIEDIQTAILSRSL”, “not soluble”; that for “MGSDKIHHHHHHMSSLQILQGTFRLSDTKTLQLPQLTLNAGDSWAFVGSNGSGKSALARALAGELPLLKGERQSQFSHITRLSFEQLQKLVSDEWQRNNTDMLGPGEDDTGRTTAEIIQDEVKDAPRCMQLAQQFGITALLDRRFKYLSTGETRKTLLCQALMSEPDLLILDEPFDGLDVASRQQLAERLASLHQSGITLVLVLNRFDEIPEFVQFAGVLADCTLAETGAKEELLQQALVAQLAHSEQLEGVQLPEPDEPSARHALPANEPRIVLNNGVVSYNDRPILNNLSWQVNPGEHWQIVGPNGAGKSTLLSLVTGDHPQGYSNDLTLFGRRRGSGETIWDIKKHIGYVSSSLHLDYRVSTTVRNVILSGYFDSIGIYQAVSDRQQKLVQQWLDILGIDKRTADAPFHSLSWGQQRLALIVRALVKHPTLLILDEPLQGLDPLNRQLIRRFVDVLISEGETQLLFVSHHAEDAPACITHRLEFVPDGGLYRYVLTKIY”, “not soluble”. The result for “QRGIINQRRERLVAADLMGAATVTASTVKYIVEKANRIASGAPATVAEGTKKPYVKYADFDVVTESLSKVAALAKFTDEMIEDYDFVASWINNNLVYDLSVVEEKQLINGDGRGSNIKGLLNREGIQTHKSAKQADWFNDLFKAKNKVSQATNLEADGIMINPVNYEALRLTKDGNGQYIAGGPFQGQYGNGNILIDPPLWGIKTVVSNAVPAGTAIVGAFRQGATVLRKGGVRVDSANTNADDFENNLVTLRAEERLGLMVPLPAAFVKVTLEETTEEL” reads “not soluble”.
